Reference: US20200316124A1

Molecular target: SCNN1A, Sodium Channel Epithelial 1 Alpha Subunit (Isoform 1, UniProt P37088-1) (human) (UniProt P37088)
Assay: cell-based or functional assay

Chain of SCNN1A, Sodium Channel Epithelial 1 Alpha Subunit (P37088 whole entry, canonical isoform, one chain of several): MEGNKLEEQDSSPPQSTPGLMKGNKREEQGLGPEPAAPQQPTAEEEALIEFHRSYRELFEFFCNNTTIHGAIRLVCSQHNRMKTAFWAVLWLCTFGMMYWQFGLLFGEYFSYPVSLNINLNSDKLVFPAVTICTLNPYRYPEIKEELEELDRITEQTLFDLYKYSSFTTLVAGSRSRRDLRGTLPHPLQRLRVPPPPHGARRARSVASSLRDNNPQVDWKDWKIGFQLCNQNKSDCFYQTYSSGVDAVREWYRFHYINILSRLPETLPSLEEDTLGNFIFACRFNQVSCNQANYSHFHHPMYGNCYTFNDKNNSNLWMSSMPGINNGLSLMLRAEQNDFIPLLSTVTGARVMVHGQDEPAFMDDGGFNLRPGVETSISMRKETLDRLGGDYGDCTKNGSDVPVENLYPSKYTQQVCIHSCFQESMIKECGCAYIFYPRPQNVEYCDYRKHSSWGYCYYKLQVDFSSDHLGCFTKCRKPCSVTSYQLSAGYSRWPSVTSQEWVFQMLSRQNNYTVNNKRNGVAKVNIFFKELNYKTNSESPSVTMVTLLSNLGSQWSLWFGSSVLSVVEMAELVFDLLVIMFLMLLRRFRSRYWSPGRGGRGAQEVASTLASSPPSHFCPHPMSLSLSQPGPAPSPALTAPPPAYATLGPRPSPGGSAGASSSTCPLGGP

Substance: SW.3G1 T-cell receptor (γ3δ1 TCR, TRGV3/TRDV1) of T-cell clone SW.3G1
- killing in long term killing assay, LCL.174 wildtype cells: 100%
- lysis in long term killing assay, LCL.174 SCNN1A knockout cell lines (gRNA-1 or gRNA-2): < 5%
